Data published in patent US20160244499A1.
Each block holds one substance with its values, some of them ahead of it.

What was measured:
[1] = molecular target: C-terminally biotinylated IL-13Rα1 ectodomain (human) (UniProt P78552); assay: Table 1, affinity for IL-13Rα1; method for this row not stated
[2] = molecular target: C-terminally biotinylated IL-13Rα1 ectodomain (human) (UniProt P78552); assay: SPR (Biacore T100), biotinylated IL-13Rα1 on SA chip, cytokine/IL-4Rα complex as analyte
[3] = molecular target: C-terminally biotinylated γc ectodomain (human) (UniProt P31785); assay: SPR, cytokine/IL-4Rα complex on immobilised γc
[4] = molecular target: C-terminally biotinylated γc ectodomain (human) (UniProt P31785); assay: SPR (Biacore T100), biotinylated γc on SA chip, cytokine/IL-4Rα complex as analyte, 1:1 model
[5] = molecular target: C-terminally biotinylated γc ectodomain (human) (UniProt P31785); assay: SPR, comparison of affinities for γc and IL-13Rα1
[6] = molecular target: T1, γc on human cell lines (Ramos, HH, U937) (human) (UniProt P31785); assay: cell-based or functional assay
T1 sequence (looked up): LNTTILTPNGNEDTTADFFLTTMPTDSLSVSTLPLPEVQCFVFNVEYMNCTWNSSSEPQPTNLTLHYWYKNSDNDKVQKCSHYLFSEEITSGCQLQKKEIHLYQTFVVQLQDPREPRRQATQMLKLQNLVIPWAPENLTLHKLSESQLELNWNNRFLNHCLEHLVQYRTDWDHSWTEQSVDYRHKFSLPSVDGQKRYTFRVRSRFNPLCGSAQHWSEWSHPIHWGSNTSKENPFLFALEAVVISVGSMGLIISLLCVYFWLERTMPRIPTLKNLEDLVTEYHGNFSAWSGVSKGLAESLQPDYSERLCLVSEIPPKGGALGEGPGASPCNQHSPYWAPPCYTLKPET

[7] = molecular target: C-terminally biotinylated IL-13Rα1 ectodomain (human) (UniProt P78552); assay: SPR (Biacore T100), biotinylated IL-13Rα1 on SA chip, cytokine/IL-4Rα complex as analyte, 1:1 model

wild-type IL-4, free recombinant cytokine, sequence (P05112 other isoform, or with tags, fused parts or gaps): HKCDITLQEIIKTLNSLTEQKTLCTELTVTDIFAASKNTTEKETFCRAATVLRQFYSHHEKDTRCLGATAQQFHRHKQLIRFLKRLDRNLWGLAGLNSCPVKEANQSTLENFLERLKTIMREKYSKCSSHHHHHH

Kd [1]: 0.03 µM
Substance: IL-13 (from UniProt P35225 35-146) (ligand)

Kd [2]: 21 µM
fold faster on-rate (against IL-4) [3]: 6 fold
fold higher affinity (against IL-4/IL-4Rα) [3]: 3700 fold
logs gained in binding affinity (against IL-4) [3]: 4 log
Kd [4]: 0.00089 µM
koff [4]: 0.00059 s⁻¹
kon [4]: 660000 M⁻¹ s⁻¹
selectivity for the Type-I receptor complex over the Type-II receptor [5]: 6 log
Substance: RGA/IL-4Rα binary complex (from UniProt P24394 26-202)

mean MFI of STAT6 phosphorylation, Ramos cells, 100 pg/ml, 20 minute stimulation [6]: 7.7 MFI
percentage decrease in STAT6 phosphorylation caused by 50 µg/ml of anti-γc, Ramos cells, 100 pg/ml cytokine [6]: 58%
reduction in STAT6 phosphorylation on blocking γc in U937 cells [6]: 44%
Substance: wild-type IL-4, free recombinant cytokine (from UniProt P05112 25-153) (ligand)

Kd [7]: 4.2 µM
koff [7]: 0.17 s⁻¹
kon [7]: 41000 M⁻¹ s⁻¹
Kd [4]: 3.3 µM
koff [4]: 0.31 s⁻¹
kon [4]: 95000 M⁻¹ s⁻¹
Substance: wild-type IL-4/IL-4Rα binary complex (from UniProt P24394 26-202)
